Results: patent US20050059089A1 (priority 2003, published 2005)
Several values for one entry are separate records, joined by “and”; a condition that tells them apart may be missing. Equal values may be shown once. No end group written: not given here.

Columns and labels:
[1] = target: T1, human GPCR142 (human, UniProt Q8TDU9 1-374); test: radioligand binding assays
T1 construct: Expressed in COS-7, CHO, SK-N-MC or HEK293 cells

[2] = target: Monkey, bovine, and porcine GPCR142; test: cell-based or functional assay
[3] = target: T2, bovine GPCR142 (bovine); test: cell-based or functional assay
T2 chain: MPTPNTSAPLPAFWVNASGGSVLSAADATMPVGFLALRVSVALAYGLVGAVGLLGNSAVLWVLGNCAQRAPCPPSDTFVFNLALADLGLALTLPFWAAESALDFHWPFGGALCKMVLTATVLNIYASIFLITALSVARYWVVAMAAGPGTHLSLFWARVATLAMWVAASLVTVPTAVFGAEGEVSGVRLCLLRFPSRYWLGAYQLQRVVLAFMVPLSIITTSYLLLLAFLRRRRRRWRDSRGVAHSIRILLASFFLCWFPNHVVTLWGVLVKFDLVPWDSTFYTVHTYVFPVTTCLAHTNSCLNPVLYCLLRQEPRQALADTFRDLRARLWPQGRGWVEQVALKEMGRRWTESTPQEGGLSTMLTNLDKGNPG

[4] = target: T3, mouse GPCR142 (mouse, UniProt Q7TQP4 1-414); test: cell-based or functional assay
T3 sequence: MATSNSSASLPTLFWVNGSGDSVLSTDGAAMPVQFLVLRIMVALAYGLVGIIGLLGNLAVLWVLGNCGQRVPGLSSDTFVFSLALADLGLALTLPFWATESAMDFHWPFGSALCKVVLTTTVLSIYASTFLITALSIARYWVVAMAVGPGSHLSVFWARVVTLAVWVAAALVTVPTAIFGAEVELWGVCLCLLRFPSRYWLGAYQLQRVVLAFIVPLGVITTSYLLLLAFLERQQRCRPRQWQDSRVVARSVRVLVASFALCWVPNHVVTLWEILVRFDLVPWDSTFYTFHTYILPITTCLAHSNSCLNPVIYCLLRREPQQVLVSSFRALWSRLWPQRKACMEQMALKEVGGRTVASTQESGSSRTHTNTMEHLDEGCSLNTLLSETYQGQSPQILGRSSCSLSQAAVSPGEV

[5] = target: T1, human GPCR142; test: cell-based or functional assay
[6] = target: T4, porcine GPCR142 (porcine); test: cell-based or functional assay
T4 chain: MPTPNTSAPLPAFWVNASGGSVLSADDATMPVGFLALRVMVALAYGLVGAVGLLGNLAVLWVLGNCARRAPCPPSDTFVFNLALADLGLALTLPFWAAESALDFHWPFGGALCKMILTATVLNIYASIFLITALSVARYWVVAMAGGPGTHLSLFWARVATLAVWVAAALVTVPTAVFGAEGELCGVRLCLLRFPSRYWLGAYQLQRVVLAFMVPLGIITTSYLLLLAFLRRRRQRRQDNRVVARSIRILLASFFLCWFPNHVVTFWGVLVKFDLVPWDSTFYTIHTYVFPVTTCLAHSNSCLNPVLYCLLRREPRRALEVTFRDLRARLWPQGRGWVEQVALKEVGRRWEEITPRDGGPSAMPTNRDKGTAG

[7] = target: T5, monkey GPCR142 (monkey (Macaca Nemestrina), UniProt Q8TDU9 1-374 (human entry)); test: cell-based or functional assay
T5 chain: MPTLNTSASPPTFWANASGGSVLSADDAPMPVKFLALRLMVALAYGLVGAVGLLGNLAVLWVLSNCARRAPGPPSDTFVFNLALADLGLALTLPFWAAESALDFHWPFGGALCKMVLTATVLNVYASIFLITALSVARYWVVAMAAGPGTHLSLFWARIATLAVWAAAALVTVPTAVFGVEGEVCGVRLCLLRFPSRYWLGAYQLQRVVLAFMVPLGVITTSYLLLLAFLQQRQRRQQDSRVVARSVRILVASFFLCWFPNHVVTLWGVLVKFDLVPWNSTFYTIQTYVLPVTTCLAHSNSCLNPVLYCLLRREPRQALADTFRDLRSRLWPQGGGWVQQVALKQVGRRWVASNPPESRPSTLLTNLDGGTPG

[8] = target: T1, human GPCR142; test: competition binding with ^125I-relaxin3, membranes of COS-7 cells transiently expressing GPCR142
Method: (§1) The binding mixtures were incubated at room temperature for 1 h and then were filtered through 96-well GFC plates (Packard) and washed with ice-cold washing buffer: 50 mM Tris-HCl, pH 7.4. Fifty microliters of Microscint-40 were added to each well and the plates were counted in a Topcounter NTX (Packard).

[9] = target: T2, bovine GPCR142; test: radioligand competition binding, recombinant receptor in transfected COS-7 cells
Method: (§2) Competition binding experiments were performed to compare the ligand binding properties for recombinant monkey, mouse, bovine, and porcine GPCR142 versus that of the human GPCR142. […] The GPCR142 receptors from different species were also compared in GTPγS binding and Ca²⁺ mobilization assays.
as §1

[10] = target: T3, mouse GPCR142; test: as above
Method: as §2, §1

[11] = target: T1, human GPCR142; test: as above
Method: as §2, §1

[12] = target: T4, porcine GPCR142; test: as above
Method: as §2, §1

[13] = target: T5, monkey GPCR142; test: as above
Method: as §2, §1

[14] = target: T6, human GPCR135 (human, UniProt Q9NSD7 1-469); test: competition binding with 100 pM ^125I-relaxin3, membranes of COS-7 cells expressing human GPCR135
T6 construct: Expressed in COS-7, CHO, SK-N-MC or HEK293 cells
T6 sequence: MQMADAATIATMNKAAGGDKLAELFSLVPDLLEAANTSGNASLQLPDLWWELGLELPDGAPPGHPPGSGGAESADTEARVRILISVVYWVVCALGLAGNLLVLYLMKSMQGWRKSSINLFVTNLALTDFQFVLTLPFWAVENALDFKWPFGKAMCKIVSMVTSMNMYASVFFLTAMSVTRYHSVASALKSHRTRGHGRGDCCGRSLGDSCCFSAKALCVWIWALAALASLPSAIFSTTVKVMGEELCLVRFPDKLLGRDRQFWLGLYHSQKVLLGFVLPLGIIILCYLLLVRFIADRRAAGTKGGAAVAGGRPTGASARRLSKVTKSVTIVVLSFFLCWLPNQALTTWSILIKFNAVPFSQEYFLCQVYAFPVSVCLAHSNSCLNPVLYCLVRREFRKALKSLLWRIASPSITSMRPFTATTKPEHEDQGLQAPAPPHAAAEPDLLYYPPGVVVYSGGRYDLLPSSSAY
Method: The binding assays were performed at room temperature for an incubation time of one hour. The binding mixtures were then filtered through GFC filters pre-saturated with 0.3 polyethylenimine (Sigma) and washed with cold binding buffer. […] The results were analyzed by Prism 3.0 software.

T1 sequence (Q8TDU9 whole entry L329S): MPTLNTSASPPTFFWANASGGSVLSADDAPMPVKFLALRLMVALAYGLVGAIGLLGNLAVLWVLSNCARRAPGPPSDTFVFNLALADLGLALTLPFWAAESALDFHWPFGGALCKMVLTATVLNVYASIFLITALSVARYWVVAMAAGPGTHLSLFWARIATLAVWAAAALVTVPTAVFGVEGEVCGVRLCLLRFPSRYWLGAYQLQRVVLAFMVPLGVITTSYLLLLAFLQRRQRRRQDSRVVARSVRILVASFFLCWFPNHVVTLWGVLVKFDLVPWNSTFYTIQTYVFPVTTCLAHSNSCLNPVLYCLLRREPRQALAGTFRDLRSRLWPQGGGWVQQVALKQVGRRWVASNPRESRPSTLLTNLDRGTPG

Row | Binder | Kd and Ki values [1] [nM] | EC50, Ca^2+ mobilization with Gα16 [2] [nM] | EC50, GTPγS binding assay [3] [nM] | EC50, GTPγS binding assay [4] [nM] | EC50, Ca^2+ mobilization with Gα16 [5] [nM] | EC50, GTPγS binding assay [5] | EC50, inhibition of forskolin-stimulated β-gal activity (cAMP reporter) [5] [nM] | EC50, GTPγS binding assay [6] [nM] | EC50, GTPγS binding assay [7] [nM] | Ki [8] [nM] | IC50 [9] [nM] | IC50 [10] [nM] | IC50 [11] [nM] | IC50 [12] [nM] | IC50 [13] [nM] | binding result [14]
1 | human relaxin3 (ligand, disulfide (positions not given here); also: A- and B-chains linked by disulfide bridges, places not given here, also called unlabeled relaxin3; human recombinant relaxin3) chain 1: RAAPYGVRLCGREFIRAVIFTCGGSRW chain 2: DVLAGLSSSCCKWGCSKSEISSLC | 1 to 2 | 50 to 100 | 0.45 | 3.5 | ~50 | 0.93 nM and 0.98 nM | 0.85 | 0.96 | 1.1 | 1.2 | 0.87 | 5.45 | 1.45 | 1.59 | 1.34 | 
2 | human recombinant INSL5 (ligand, ends and bridges not checked; cysteine pairing not given here, Recombinant peptide from COS-7 cells co-transfected with furin; also called unlabeled INSL5; human INSL5) chain 1: KESVRLCGLEYIRTVIYICASSRW chain 2: QDLQTLCCTDGCSMTDLSALC |  |  |  |  |  |  |  |  |  |  |  |  |  |  |  | no binding
